Laboratory results reported in the supplement of paper PMC7877785.
± gives the uncertainty stated by the source.

Assay: self-splicing fitness, log relative to wild type (ln ratio); higher = more splicing; Tetrahymena group I intron in knt gene, E. coli kanamycin selection, DiMSum; sequences stand for … in CUCUCU…GGAGGGAAAAGUUAUCAGGCAUGCACCUGGUAGCUAGUCUUUAAACCAAUAGAUUGCAUCGGUUUAAAAGGCAAGACCGUCAAAUUGCGGGAAAGGGGUCAACAGCCGUUCAGUACCAAGUCUCAGGGGAAACUUUGAGAUGGCCUUGCAAAGGGUAUGGUAAUAAGCUGACGGACAUGGUCCUAACCACGCAGCCAAGUCCUAAGUCAACAGAUCUUCUGUUGAUAUGGAUGCAGUUCACAGACUAAAUGUCGGUCGGGGAAGAUGUAUUCUUCUCAUAAGAUAUAGUCGGACCUCUCCUUAAUGGGAGCUAGCGGAUGAAGUGAUGCAACACUGGAGCCGCUGGGAACUAAUUUGUAUGCGAAAGUAUAUUGAUUAGUUUUGGAGUACUCGUGGUCG
Summary of the method: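 The eight P1ex-region nucleotides of an intron in the knt kanamycin-resistance gene on pET-22b(+) were all randomised and the library put into E. coli BL21(DE3). Six replicate transformations were grown overnight at 37°C or 30°C on LB agar with or without 25 μg/mL kanamycin, together with 100 μg/mL carbenicillin, 50 μM IPTG and 0.2% rhamnose. Colonies were pooled and amplicon-sequenced on an Illumina HiSeq 2500. Fitness from DiMSum is the error-weighted combination of wild-type-normalised replicate fold changes, kanamycin over none.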

| Sequence | self-splicing fitness (ln) (30 °C) | self-splicing fitness (ln) (37 °C) |
| --- | --- | --- |
| AUCGAGCAAUAUUACGUUUU | -4.86 ± 0.36 | -1.23 ± 0.12 |
| AUCUAGCAAUAUUACGACAG | -3.33 ± 0.3 | -2.68 ± 0.31 |
| AUCUAGCAAUAUUACGACGG | -2.58 ± 0.33 | -2.23 ± 0.42 |
| AUCUAGCAAUAUUACGAUAU | -1.15 ± 0.076 | -0.605 ± 0.1 |
| AUCUAGCAAUAUUACGAUGU | -0.781 ± 0.08 | -0.0281 ± 0.11 |
| AUCUAGCAAUAUUACGAUUA | -0.971 ± 0.11 | -0.836 ± 0.11 |
| AUCUAGCAAUAUUACGCACC | -0.201 ± 0.21 | -0.886 ± 0.38 |
| AUCUAGCAAUAUUACGCCGA | -0.962 ± 0.17 | -0.198 ± 0.19 |
| AUCUAGCAAUAUUACGCGCA | -0.448 ± 0.1 | -0.485 ± 0.11 |
| AUCUAGCAAUAUUACGCGUG | -1.23 ± 0.1 | -1.01 ± 0.12 |
| AUCUAGCAAUAUUACGCUAU | -3.15 ± 0.21 | -1.49 ± 0.14 |
| AUCUAGCAAUAUUACGGAUG | -2.12 ± 0.12 | 0.0806 ± 0.12 |
| AUCUAGCAAUAUUACGGGCU | -2.22 ± 0.16 | -2.49 ± 0.23 |
| AUCUAGCAAUAUUACGGUAG | -3.92 ± 0.28 | -2.13 ± 0.22 |
| AUCUAGCAAUAUUACGGUGC | -3.09 ± 0.22 | -1.4 ± 0.21 |
| AUCUAGCAAUAUUACGUAUG | -2.41 ± 0.13 | -1.55 ± 0.17 |
| AUCUAGCAAUAUUACGUCAG | -3.18 ± 0.2 | -2.34 ± 0.2 |
| AUCUAGCAAUAUUACGUCUC | -2.8 ± 0.26 | -0.391 ± 0.22 |
| AUCUAGCAAUAUUACGUGGC | -2.58 ± 0.23 | -2.92 ± 0.31 |
| AUCUAGCAAUAUUACGUGUC | -3.9 ± 0.36 | -2.64 ± 0.24 |
| AUCUAGCAAUAUUACGUUCC | -1.16 ± 0.18 | -1.47 ± 0.25 |
| AUGAAGCAAUAUUACGAAAU | -0.819 ± 0.07 | -0.46 ± 0.073 |
| AUGAAGCAAUAUUACGAAGC | -3.46 ± 0.18 | -1.89 ± 0.19 |
| AUGAAGCAAUAUUACGAAUU | -1.58 ± 0.084 | -1.25 ± 0.12 |

| Sequence | self-splicing fitness (ln) (30 °C) | self-splicing fitness (ln) (37 °C) |
| --- | --- | --- |
| AUGAAGCAAUAUUACGACGA | 0.221 ± 0.18 | 0.67 ± 0.15 |
| AUGAAGCAAUAUUACGACGU | 0.206 ± 0.076 | 0.735 ± 0.088 |
| AUGAAGCAAUAUUACGAUAU | -0.294 ± 0.066 | 0.229 ± 0.083 |
| AUGAAGCAAUAUUACGAUUG | -2.6 ± 0.13 | -1.24 ± 0.14 |
| AUGAAGCAAUAUUACGCACC | -0.272 ± 0.097 | 0.751 ± 0.18 |
| AUGAAGCAAUAUUACGCCAA | -0.427 ± 0.086 | 0.0636 ± 0.11 |
| AUGAAGCAAUAUUACGCCGG | -0.936 ± 0.11 | 0.108 ± 0.18 |
| AUGAAGCAAUAUUACGCCUG | -0.59 ± 0.092 | -0.209 ± 0.11 |
| AUGAAGCAAUAUUACGCCUU | -1.9 ± 0.16 | -1.01 ± 0.14 |
| AUGAAGCAAUAUUACGCUUG | -0.527 ± 0.09 | 0.363 ± 0.11 |
| AUGAAGCAAUAUUACGGACU | 0.892 ± 0.12 | 0.27 ± 0.1 |
| AUGAAGCAAUAUUACGGAGU | -1.4 ± 0.089 | -0.447 ± 0.094 |
| AUGAAGCAAUAUUACGGCAA | 0.00287 ± 0.12 | 0.0978 ± 0.14 |
| AUGAAGCAAUAUUACGGCAC | -0.455 ± 0.086 | 0.222 ± 0.14 |
| AUGAAGCAAUAUUACGGCCA | 0.439 ± 0.11 | 0.466 ± 0.18 |
| AUGAAGCAAUAUUACGGGAC | -2.09 ± 0.32 | -1.65 ± 0.43 |
| AUGAAGCAAUAUUACGGGCA | 0.212 ± 0.079 | 0.459 ± 0.09 |
| AUGAAGCAAUAUUACGGGUC | -3.75 ± 0.18 | -2.63 ± 0.23 |
| AUGAAGCAAUAUUACGGGUG | -1.81 ± 0.088 | -0.453 ± 0.098 |
| AUGAAGCAAUAUUACGGGUU | -1.62 ± 0.11 | -1.07 ± 0.12 |
| AUGAAGCAAUAUUACGUACG | -0.461 ± 0.13 | -0.446 ± 0.093 |
| AUGAAGCAAUAUUACGUCAC | -2.97 ± 0.26 | -1.09 ± 0.18 |
| AUGAAGCAAUAUUACGUCCG | -0.499 ± 0.062 | 0.309 ± 0.086 |
| AUGAAGCAAUAUUACGUCGA | -0.936 ± 0.1 | 0.22 ± 0.097 |

| Sequence | self-splicing fitness (ln) (30 °C) | self-splicing fitness (ln) (37 °C) |
| --- | --- | --- |
| AUGAAGCAAUAUUACGUGUA | -1.75 ± 0.082 | -0.686 ± 0.093 |
| AUGAAGCAAUAUUACGUUAG | -1.97 ± 0.08 | -0.415 ± 0.11 |
| AUGAAGCAAUAUUACGUUCU | -0.34 ± 0.076 | 0.201 ± 0.092 |
| AUGCAGCAAUAUUACGAAAG | -2.87 ± 0.23 | -3.15 ± 0.4 |
| AUGCAGCAAUAUUACGAACG | -1.7 ± 0.16 | -0.0769 ± 0.12 |
| AUGCAGCAAUAUUACGAUUC | -2.72 ± 0.14 | -0.939 ± 0.17 |
| AUGCAGCAAUAUUACGCCUC | -2.55 ± 0.2 | -1.35 ± 0.14 |
| AUGCAGCAAUAUUACGCGUC | -3.6 ± 0.2 | -3.05 ± 0.16 |
| AUGCAGCAAUAUUACGCGUU | -2.4 ± 0.088 | -2.7 ± 0.19 |
| AUGCAGCAAUAUUACGCUGC | -4.54 ± 0.2 | -3.94 ± 0.19 |
| AUGCAGCAAUAUUACGCUGU | -3.46 ± 0.21 | -2.63 ± 0.45 |
| AUGCAGCAAUAUUACGGGUG | -3.33 ± 0.14 | -1.62 ± 0.12 |
| AUGCAGCAAUAUUACGGUAC | -2.35 ± 0.095 | -1.52 ± 0.14 |
| AUGCAGCAAUAUUACGGUAG | -3.81 ± 0.16 | -2.4 ± 0.14 |
| AUGCAGCAAUAUUACGGUCC | -1.85 ± 0.16 | -0.88 ± 0.17 |
| AUGCAGCAAUAUUACGUAGU | -1.46 ± 0.088 | -0.542 ± 0.089 |
| AUGCAGCAAUAUUACGUGAA | -2.44 ± 0.12 | -0.683 ± 0.13 |
| AUGCAGCAAUAUUACGUGCC | -1.08 ± 0.11 | -0.869 ± 0.15 |
| AUGCAGCAAUAUUACGUGCG | -0.943 ± 0.061 | -0.294 ± 0.076 |
| AUGCAGCAAUAUUACGUUAC | -3.57 ± 0.3 | -1.54 ± 0.22 |
| AUGCAGCAAUAUUACGUUAG | -3.05 ± 0.15 | -2.38 ± 0.2 |
| AUGGAGCAAUAUUACGAUAG | -3.59 ± 0.4 | -1.67 ± 0.32 |
| AUGGAGCAAUAUUACGCAAG | -4.55 ± 0.42 | -1.09 ± 0.31 |
| AUGGAGCAAUAUUACGCAUU | -3.12 ± 0.22 | -1.84 ± 0.22 |

| Sequence | self-splicing fitness (ln) (30 °C) | self-splicing fitness (ln) (37 °C) |
| --- | --- | --- |
| AUGGAGCAAUAUUACGCCUA | -0.868 ± 0.14 | -0.981 ± 0.18 |
| AUGGAGCAAUAUUACGCGCG | -2.41 ± 0.17 | -1.27 ± 0.19 |
| AUGGAGCAAUAUUACGCGUU | -3.93 ± 0.21 | -3.05 ± 0.24 |
| AUGGAGCAAUAUUACGGAUG | – | -2.29 ± 0.37 |
| AUGGAGCAAUAUUACGGGAC | -5.23 ± 0.41 | -2.7 ± 0.25 |
| AUGGAGCAAUAUUACGGGGG | -3.55 ± 0.43 | -2.21 ± 0.35 |
| AUGGAGCAAUAUUACGUAAC | -2.91 ± 0.34 | -2.29 ± 0.46 |
| AUGGAGCAAUAUUACGUAGC | – | -1.93 ± 0.3 |
| AUGGAGCAAUAUUACGUAUA | -1.75 ± 0.45 | -2.02 ± 0.36 |
| AUGGAGCAAUAUUACGUCCA | -0.783 ± 0.45 | -0.778 ± 0.34 |
| AUGGAGCAAUAUUACGUCCU | -0.886 ± 0.24 | -1.35 ± 0.29 |
| AUGGAGCAAUAUUACGUGCG | -3.44 ± 0.32 | -1.8 ± 0.23 |
| AUGGAGCAAUAUUACGUUCA | -1.16 ± 0.12 | -0.311 ± 0.14 |
| AUGGAGCAAUAUUACGUUGG | -4.65 ± 0.39 | -2.35 ± 0.23 |
| AUGUAGCAAUAUUACGAACC | -1 ± 0.18 | -0.513 ± 0.22 |
| AUGUAGCAAUAUUACGAAGA | – | -0.739 ± 0.21 |
| AUGUAGCAAUAUUACGAAUC | – | -2.91 ± 0.29 |
| AUGUAGCAAUAUUACGACUC | 0.285 ± 0.12 | 0.585 ± 0.18 |
| AUGUAGCAAUAUUACGCAGU | -2.49 ± 0.12 | -1.29 ± 0.11 |
| AUGUAGCAAUAUUACGCAUU | -3.93 ± 0.18 | -2.89 ± 0.23 |
| AUGUAGCAAUAUUACGCCAA | -0.877 ± 0.19 | -1.5 ± 0.19 |
| AUGUAGCAAUAUUACGCCCA | -0.905 ± 0.12 | -0.148 ± 0.2 |
| AUGUAGCAAUAUUACGCCCU | 0.267 ± 0.097 | 0.0833 ± 0.098 |
| AUGUAGCAAUAUUACGCUCG | -0.227 ± 0.078 | 0.00954 ± 0.13 |
